Data reported in patent EP4574844A1 (Numab Therapeutics AG, dated 2025).

T1: Fc-tagged human PDL2 (human, UniProt Q9BQ51 20-220, limits assumed)
T1 sequence (looked up): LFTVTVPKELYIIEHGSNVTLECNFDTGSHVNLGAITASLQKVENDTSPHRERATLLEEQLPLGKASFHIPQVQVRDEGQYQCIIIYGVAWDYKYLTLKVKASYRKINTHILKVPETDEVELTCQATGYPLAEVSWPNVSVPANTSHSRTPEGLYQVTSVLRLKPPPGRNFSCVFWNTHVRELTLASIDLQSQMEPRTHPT


How the values were obtained:
[1] = target: T2, recombinant cynomolgus PDL1 (cynomolgus monkey, UniProt G7PSE7 19-238); test: SPR
T2 construct: also called cynom; PDL1

[2] = target: human PD-L1 on the cell surface (human, UniProt Q9NZQ7 19-290); test: cell-based or functional assay
recombinant human PDL1 = target: T3, recombinant human PDL1 (human, UniProt Q9NZQ7 19-238, limits assumed); test: SPR
T3 construct: SPR antigen; also called CD274; B7-H1

Fc-tagged human PDL2 = target: T1, Fc-tagged human PDL2; test: SPR, Fc-tagged human PDL2 captured, scFv as analyte
[3] = target: T4, human LILRB2 on the cell surface (human, UniProt Q8N423 22-597); test: cell-based or functional assay
[4] = target: T5, LILRA4 on transiently transfected CHO cells (UniProt P59901 24-499); test: CELISA, transiently transfected CHO cells
T5 construct: whole, on cells; V5 tag at the N-terminus

[5] = target: T6, LILRA6 on transiently transfected CHO cells (UniProt Q6PI73 24-481); test: CELISA, transiently transfected CHO cells
T6 construct: whole, on cells; V5 tag at the N-terminus

[6] = target: T7, LILRA5 on transiently transfected CHO cells (UniProt A6NI73 42-299); test: CELISA, transiently transfected CHO cells
T7 construct: whole, on cells; V5 tag at the N-terminus

[7] = target: T8, LILRB3 on transiently transfected CHO cells (UniProt O75022 24-631, limits assumed); test: CELISA, transiently transfected CHO cells
T8 construct: whole, on cells; V5 tag at the N-terminus

[8] = target: T9, LILRB1 on transiently transfected CHO cells (UniProt Q8NHL6 24-650); test: CELISA, transiently transfected CHO cells
T9 construct: whole, on cells; V5 tag at the N-terminus

[9] = target: T10, LILRB5 on transiently transfected CHO cells (UniProt O75023 24-590, limits assumed); test: CELISA, transiently transfected CHO cells
T10 construct: whole, on cells; V5 tag at the N-terminus

[10] = target: T11, LILRA1 on transiently transfected CHO cells (UniProt O75019 17-489, limits assumed); test: CELISA, transiently transfected CHO cells
T11 construct: whole, on cells; V5 tag at the N-terminus

[11] = target: T12, LILRA2 on transiently transfected CHO cells (UniProt Q8N149 24-483); test: CELISA, transiently transfected CHO cells
T12 construct: whole, on cells; V5 tag at the N-terminus

[12] = target: T13, LILRA3 on transiently transfected CHO cells (UniProt Q8N6C8 24-439); test: CELISA, transiently transfected CHO cells
T13 construct: whole, on cells; V5 tag at the N-terminus

[13] = target: T14, LILRB4 on transiently transfected CHO cells (UniProt Q8NHJ6 22-448); test: CELISA, transiently transfected CHO cells
T14 construct: whole, on cells; V5 tag at the N-terminus

[14] = target: T4, human LILRB2 on the cell surface; test: cell-based or functional assay; remark: listed apart in the source

T4 sequence (Q8N423 22-597): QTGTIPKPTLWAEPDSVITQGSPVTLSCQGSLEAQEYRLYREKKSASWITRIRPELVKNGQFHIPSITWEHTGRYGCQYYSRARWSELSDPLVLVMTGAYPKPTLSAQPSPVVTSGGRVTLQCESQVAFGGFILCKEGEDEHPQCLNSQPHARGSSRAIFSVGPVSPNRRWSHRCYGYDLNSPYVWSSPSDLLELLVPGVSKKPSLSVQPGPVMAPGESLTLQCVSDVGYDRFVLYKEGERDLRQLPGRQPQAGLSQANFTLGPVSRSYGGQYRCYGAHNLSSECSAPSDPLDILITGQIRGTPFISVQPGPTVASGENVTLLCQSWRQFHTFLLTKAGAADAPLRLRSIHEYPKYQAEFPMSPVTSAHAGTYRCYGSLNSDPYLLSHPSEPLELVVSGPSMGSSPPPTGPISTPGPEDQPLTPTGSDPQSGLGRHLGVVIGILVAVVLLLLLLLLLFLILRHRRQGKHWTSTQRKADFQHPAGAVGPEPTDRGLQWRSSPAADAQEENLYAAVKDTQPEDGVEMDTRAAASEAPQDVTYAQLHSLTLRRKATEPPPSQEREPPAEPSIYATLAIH
T2 sequence (G7PSE7 entry or part of it): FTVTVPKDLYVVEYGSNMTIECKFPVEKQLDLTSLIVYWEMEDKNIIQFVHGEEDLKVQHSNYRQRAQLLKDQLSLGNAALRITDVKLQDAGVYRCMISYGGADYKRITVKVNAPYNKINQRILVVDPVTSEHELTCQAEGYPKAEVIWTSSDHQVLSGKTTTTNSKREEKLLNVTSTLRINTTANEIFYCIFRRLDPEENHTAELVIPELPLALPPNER
T11 sequence (O75019 17-489 limits assumed): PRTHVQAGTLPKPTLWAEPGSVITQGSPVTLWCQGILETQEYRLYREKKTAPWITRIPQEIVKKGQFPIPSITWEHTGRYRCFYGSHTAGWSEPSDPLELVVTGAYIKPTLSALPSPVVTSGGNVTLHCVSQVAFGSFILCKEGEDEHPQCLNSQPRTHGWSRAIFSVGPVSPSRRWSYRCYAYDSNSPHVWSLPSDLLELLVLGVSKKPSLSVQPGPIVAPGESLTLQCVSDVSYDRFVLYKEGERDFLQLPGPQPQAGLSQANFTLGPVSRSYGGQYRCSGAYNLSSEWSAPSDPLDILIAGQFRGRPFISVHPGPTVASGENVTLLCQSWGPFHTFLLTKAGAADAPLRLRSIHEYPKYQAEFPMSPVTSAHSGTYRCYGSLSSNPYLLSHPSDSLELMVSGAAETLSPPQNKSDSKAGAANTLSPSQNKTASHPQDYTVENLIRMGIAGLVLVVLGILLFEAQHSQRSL
T12 sequence (Q8N149 24-483): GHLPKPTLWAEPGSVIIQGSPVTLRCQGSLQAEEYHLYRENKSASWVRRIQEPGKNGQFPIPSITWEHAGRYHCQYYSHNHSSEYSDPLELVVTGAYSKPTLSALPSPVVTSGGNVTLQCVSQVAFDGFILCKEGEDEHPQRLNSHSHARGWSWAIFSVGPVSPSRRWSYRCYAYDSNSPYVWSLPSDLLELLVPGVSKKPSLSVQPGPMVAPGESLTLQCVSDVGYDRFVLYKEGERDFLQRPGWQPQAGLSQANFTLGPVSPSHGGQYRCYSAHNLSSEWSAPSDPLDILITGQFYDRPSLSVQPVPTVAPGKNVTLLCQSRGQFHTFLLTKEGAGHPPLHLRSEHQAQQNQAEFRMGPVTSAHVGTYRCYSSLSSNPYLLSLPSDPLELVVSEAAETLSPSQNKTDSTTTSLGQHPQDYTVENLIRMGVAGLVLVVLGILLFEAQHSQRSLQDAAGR
T10 sequence (O75023 24-590 limits assumed): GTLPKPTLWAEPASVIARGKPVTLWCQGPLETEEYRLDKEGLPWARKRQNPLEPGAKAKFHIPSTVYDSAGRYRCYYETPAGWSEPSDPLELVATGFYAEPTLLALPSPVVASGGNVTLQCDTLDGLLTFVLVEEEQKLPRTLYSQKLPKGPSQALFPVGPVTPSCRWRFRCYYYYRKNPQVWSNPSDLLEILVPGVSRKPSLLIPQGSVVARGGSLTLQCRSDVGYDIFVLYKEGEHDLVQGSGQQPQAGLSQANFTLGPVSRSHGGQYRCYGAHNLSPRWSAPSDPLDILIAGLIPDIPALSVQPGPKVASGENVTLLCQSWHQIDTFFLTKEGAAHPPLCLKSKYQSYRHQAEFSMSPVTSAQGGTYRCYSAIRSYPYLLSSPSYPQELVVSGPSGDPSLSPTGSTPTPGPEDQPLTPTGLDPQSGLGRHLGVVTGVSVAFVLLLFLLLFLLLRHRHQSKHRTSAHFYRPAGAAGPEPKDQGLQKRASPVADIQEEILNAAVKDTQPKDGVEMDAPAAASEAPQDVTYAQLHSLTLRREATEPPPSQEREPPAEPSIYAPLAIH
T9 sequence (Q8NHL6 24-650): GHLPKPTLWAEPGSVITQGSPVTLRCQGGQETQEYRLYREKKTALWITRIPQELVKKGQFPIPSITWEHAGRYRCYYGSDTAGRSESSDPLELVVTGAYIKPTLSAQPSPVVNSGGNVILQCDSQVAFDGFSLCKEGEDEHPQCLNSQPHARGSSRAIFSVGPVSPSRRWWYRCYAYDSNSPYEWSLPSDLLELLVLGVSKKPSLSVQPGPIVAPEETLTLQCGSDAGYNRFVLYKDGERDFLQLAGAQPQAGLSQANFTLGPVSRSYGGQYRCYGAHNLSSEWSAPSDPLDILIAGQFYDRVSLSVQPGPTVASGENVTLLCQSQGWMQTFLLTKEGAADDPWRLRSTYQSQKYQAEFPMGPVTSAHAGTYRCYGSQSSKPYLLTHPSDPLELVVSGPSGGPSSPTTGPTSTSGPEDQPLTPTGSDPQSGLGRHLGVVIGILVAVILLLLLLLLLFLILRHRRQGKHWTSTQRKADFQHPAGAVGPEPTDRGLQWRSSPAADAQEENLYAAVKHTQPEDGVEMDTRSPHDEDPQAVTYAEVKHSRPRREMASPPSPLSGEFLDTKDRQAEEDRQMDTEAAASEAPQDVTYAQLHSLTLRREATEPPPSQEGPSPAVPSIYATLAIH
T13 sequence (Q8N6C8 24-439): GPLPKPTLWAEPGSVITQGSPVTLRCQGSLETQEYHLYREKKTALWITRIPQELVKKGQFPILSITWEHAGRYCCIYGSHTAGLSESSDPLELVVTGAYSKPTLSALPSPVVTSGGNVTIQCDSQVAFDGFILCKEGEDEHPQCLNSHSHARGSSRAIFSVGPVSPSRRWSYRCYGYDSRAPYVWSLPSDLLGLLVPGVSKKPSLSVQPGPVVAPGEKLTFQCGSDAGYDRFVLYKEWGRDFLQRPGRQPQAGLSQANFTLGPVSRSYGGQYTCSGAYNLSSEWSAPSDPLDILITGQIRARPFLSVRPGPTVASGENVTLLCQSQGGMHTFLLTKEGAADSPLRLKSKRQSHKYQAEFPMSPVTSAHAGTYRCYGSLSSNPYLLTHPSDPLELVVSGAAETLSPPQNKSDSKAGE
T5 sequence (P59901 24-499): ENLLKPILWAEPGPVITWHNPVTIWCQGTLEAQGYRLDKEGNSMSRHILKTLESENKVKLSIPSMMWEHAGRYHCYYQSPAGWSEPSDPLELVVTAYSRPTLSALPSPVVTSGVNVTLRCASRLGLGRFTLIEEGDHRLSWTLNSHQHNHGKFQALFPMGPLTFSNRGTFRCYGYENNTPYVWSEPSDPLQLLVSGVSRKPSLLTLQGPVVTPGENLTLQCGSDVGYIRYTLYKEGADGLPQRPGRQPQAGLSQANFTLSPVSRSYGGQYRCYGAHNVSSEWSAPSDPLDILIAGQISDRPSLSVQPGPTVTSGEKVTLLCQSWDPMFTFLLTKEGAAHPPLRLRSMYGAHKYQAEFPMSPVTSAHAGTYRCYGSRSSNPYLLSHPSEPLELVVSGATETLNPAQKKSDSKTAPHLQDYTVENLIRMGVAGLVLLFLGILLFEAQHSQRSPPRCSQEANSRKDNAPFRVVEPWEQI
T7 sequence (A6NI73 42-299): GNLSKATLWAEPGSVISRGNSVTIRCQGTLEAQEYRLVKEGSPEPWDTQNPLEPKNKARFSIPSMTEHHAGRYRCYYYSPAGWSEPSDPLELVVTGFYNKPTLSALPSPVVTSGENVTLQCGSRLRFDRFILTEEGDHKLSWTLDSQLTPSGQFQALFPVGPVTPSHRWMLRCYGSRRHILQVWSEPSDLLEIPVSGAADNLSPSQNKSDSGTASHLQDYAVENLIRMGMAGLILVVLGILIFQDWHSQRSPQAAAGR
T6 sequence (Q6PI73 24-481): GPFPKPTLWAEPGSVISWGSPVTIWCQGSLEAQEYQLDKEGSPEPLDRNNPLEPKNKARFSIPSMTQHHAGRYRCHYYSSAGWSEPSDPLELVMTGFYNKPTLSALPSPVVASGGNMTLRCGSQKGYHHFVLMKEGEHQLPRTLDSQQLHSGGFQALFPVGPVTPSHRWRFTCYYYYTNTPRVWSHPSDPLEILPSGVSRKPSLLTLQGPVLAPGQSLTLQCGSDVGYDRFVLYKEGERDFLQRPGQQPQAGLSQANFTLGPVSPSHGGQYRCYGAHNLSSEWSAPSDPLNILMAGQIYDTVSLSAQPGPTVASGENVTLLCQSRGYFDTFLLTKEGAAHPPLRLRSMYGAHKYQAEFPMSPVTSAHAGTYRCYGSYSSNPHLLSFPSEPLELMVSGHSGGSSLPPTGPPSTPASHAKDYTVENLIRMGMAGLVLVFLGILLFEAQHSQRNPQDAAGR

| Binder | Kd [1] | koff [1] | kon [1] | PDL1/PD-1 EC50 [nM], NFAT reporter gene assay [2] | PDL1/PD-1 Max. inhibition (rel. to avelumab) [%] [2] | Kd (recombinant human PDL1) | koff (recombinant human PDL1) | kon (recombinant human PDL1) | binding result (Fc-tagged human PDL2) | further results |
| --- | --- | --- | --- | --- | --- | --- | --- | --- | --- | --- |
| PRO1347 (scFv, anti-PDL1 scFv; also called 37-20-B03-sc09) scFv: DIQMTQSPASLSASVGDRVTITCQASQSIGTYLAWYQQKPGKPPKLLIYRAFILASGVPSRFSGSGSGTDFTLTISSLQPEDFATYYCQSNFYSDSTTIGPNAFGTGTKVTVLGGGGGSGGGGSGGGGSGGGGSEVQLVESGGGLVQPGGSLRLSCAASGFSFNSDYWIYWVRQAPGKGLEWIACIYGGSSGNTQYASWAQGRFTISRDNSKNTVYLQMNSLRAEDTAVYFCARGYVDYGGATDLWGQGTLVTVSS | 12.7 pM | 8.77e-05 s⁻¹ | 6.88e+06 M⁻¹ s⁻¹ | 0.28 nM | 100% | 10.9 pM | 6.64e-05 s⁻¹ | 7.38e+06 M⁻¹ s⁻¹ | no binding (tested: 180 nM) |  |
| PRO4710 (antibody, human IgG4 S228P, kappa, V domains shown, anti-LILRB2 IgG4; also called 68-18-E11-sc07 IgG4; IgG4 variant of scFv PRO3744) VH: QQLVESGGGLVQPGGSLRLSCAASGFSFTNNYYMCWVRQAPGKGLEWIACMLVGAWGNTYYASWANGRFTISKDNSKNTVYLQMNSLRAEDTAVYFCARARDYTWTLGGDPETSGFNLWGQGTLVTVSS VL: DVQMTQSPSSLSASVGDRVTITCQASQSIGSNLAWYQQKPGKPPKLLIYKGGTLESGVPSRFSGSGSGTDFTLTISSLQPEDFATYYCQSTAGSSRSGNYGYVFGQGTKVEIKR |  |  |  |  |  |  |  |  |  | CD86 EC50 [nM], re-polarization of M2 macrophages [3]: 0.119 nM; CD163 EC50 [nM], re-polarization of M2 macrophages [3]: 0.072 nM; CD206 EC50 [nM], re-polarization of M2 macrophages [3]: 0.203 nM; binding result [4]: no binding (tested: up to 100 nM); binding result [5]: no binding (tested: up to 100 nM); binding result [6]: no binding (tested: up to 100 nM); binding result [7]: no binding (tested: up to 100 nM); binding result [8]: no binding (tested: up to 100 nM); binding result [9]: no binding (tested: up to 100 nM); binding result [10]: no binding (tested: up to 100 nM); binding result [11]: no binding (tested: up to 100 nM); binding result [12]: no binding (tested: up to 100 nM); binding result [13]: no binding (tested: up to 100 nM); IL-1β EC50 [nM], LPS-driven cytokine secretion [14]: 0.248 nM; IL-6 EC50 [nM], LPS-driven cytokine secretion [14]: 0.153 nM; TNF-α EC50 [nM], LPS-driven cytokine secretion [14]: 0.169 nM |
| PRO1392 (scFv, anti-PDL1 scFv (VL-linker-VH); also called 33-03-G02-sc18) scFv: DIQMTQSPSSLSASVGDRVTITCQASQSINDYLAWYQQKPGKAPKLLIYKASTLASGVPSRFSGSGSGTDFTLTISSLQPEDFATYYCQQGYIITDIDNVFGTGTKVTVLGGGGGSGGGGSGGGGSGGGGSQVQLQESGPGLVKPSETLSLTCKASGFSFSSGYDMCWVRQPPGKGLEWIACVVAGSVDITYYASWAKGRVTISKDSSKNQVSLKLSSVTAADTAVYYCARKDAYSDAFNLWGQGTLVTVSS | 6.5 pM | 3.4e-05 s⁻¹ | 5.2e+06 M⁻¹ s⁻¹ | 0.97 nM | 104% | 8.6 pM | 4.8e-05 s⁻¹ | 5.6e+06 M⁻¹ s⁻¹ | no binding (tested: 180 nM) |  |
